# Test results: PMC8113585 (2020)
# Target: SARS-CoV-2 full-length nucleocapsid (N) protein (N-FL: 1-419) (SARS-CoV-2, UniProt P0DTC9 1-419)
# Assay: ELISA
binder,measurement,value
"human monoclonal antibody nCoV396, recombinant IgG1 (antibody, V domains shown) VH: QVQLVESGGGVVQPGRSLRLSCAASGFTFSSYIMHWVRQAPGKGLEWVAVISYDGSNEAYADSVKGRFTISRDNSKNTLYLQMSSLRAEDTGVYYCARETGDYSSSWYDSWGRGTLVTVSS VL: QLVLTQSPSASASLGASVKLTCTLSSGHSNYAIAWHQQQPEKGPRYLMKVNSDGSHTKGDGIPDRFSGSSSGAERYLTISSLQSEDEADYYCQTWGTGIQVFGGGTKLTVL",EC50,3.2 ng/mL
